First the molecules themselves.
B1: OR4K15 (parent)
chain: GUUAACGGUCAUAGGCCAUGGAAACUAGGAGCACCAUUUCGCUGCCAGUGAAGAAAUGAACAAAGAAAAUCUGGGCCAGGCAGGCAUCAAAAGAAAUAGUCUUGCGCUCAACCAGAAAGUCUGUAAUCAUUUUAAGGGUA

The variants in the data set derive from B1. In words: self-cleavage, relative activity (ratio to wild type); higher = more cleavage; in vitro, sequencing; the parent is a self-cleaving ribozyme.
Regarding U72A A89G, the self-cleavage was 0.36.

As for G74U A117G, the self-cleavage stood at 0.02.

As for C71A A86G, the self-cleavage worked out at 0.28.

In the case of U72A A82C, the self-cleavage worked out at 0.35.

For U72C U122C, the self-cleavage came to 0.03.

On to U72C A90G, for which the self-cleavage amounted to 0.54.

In the case of G74C U139C, the self-cleavage stood at 0.15.

G74U A82G: the self-cleavage worked out at 0.28.

Consider U72C U103A, for which the self-cleavage was 0.08.

For the variant U72C U103G, the self-cleavage was determined as 0.01.

For the variant U72C U103C, the self-cleavage was found to be 0.09.

For the variant U72C A94G, the self-cleavage is 0.07.

As to U72C A94C, the self-cleavage is 0.1.

As for G73A A129G, the self-cleavage turned out to be 0.07.

In the case of U72C U102C, the self-cleavage amounted to 0.36.

Consider G74U C113U, for which the self-cleavage was 0.02.

U72A U120A: the self-cleavage was 0.17.

Regarding G73A, the self-cleavage was found to be 0.07.

Take G73U: the self-cleavage worked out at 0.05.

Regarding G73C, the self-cleavage was 0.23.

With C71U A114G, the self-cleavage turned out to be 0.05.

For C71U A114U, the self-cleavage was determined as 0.06.

Take G74U U132C: the self-cleavage was determined as 0.18.

In the case of G74U U132A, the self-cleavage turned out to be 0.3.

As for G74U U97C, the self-cleavage was 0.22.

In the case of U72G U120A, the self-cleavage is 0.19.

Take U72A U130C: the self-cleavage was found to be 0.13.

With U72C U87A, the self-cleavage is 0.4.

For the variant U72C U87C, the self-cleavage worked out at 0.22.

As to U72C U139A, the self-cleavage is 0.24.

U72C U139C: the self-cleavage was 0.46.

Take U72A A125G: the self-cleavage was 0.05.

Take G73A U127C: the self-cleavage worked out at 0.11.

With U72C U120A, the self-cleavage amounted to 0.13.

In the case of U72C U120C, the self-cleavage came out at 0.15.

On to G74A U87C, for which the self-cleavage was determined as 0.19.

Take U72A U132A: the self-cleavage was found to be 0.25.

Regarding U72A U132C, the self-cleavage worked out at 0.23.

With U72C U130C, the self-cleavage turned out to be 0.16.

On to U72A A110G, for which the self-cleavage was 0.06.

U72A A110U: the self-cleavage was 0.29.

As to U72G A94G, the self-cleavage came out at 0.09.

In the case of G75A A116G, the self-cleavage stood at 0.06.

Consider U70G U97C, for which the self-cleavage stood at 1.01.

With C71U U131C, the self-cleavage turned out to be 0.25.

Turning to G73A A78G, the self-cleavage came to 0.21.

For C71U A129G, the self-cleavage amounted to 0.08.

With U72A U127G, the self-cleavage was 0.23.

As for U72C C76U, the self-cleavage worked out at 0.22.

C71U U102C: the self-cleavage is 0.66.

For the variant G73A A118U, the self-cleavage amounted to 0.04.

Regarding U72C A96G, the self-cleavage was 0.05.

For U72G A92G, the self-cleavage stood at 0.42.

Regarding U72A U139A, the self-cleavage amounted to 0.24.

For U72A U139C, the self-cleavage is 0.23.

Consider U72A A78G, for which the self-cleavage was found to be 0.05.

Regarding G74A U108A, the self-cleavage stood at 0.03.

In the case of U72C G84U, the self-cleavage is 0.35.

Regarding U72C C81A, the self-cleavage came out at 0.26.

On to G74U G104A, for which the self-cleavage is 0.02.

For G75A A92G, the self-cleavage amounted to 0.08.

As to U72C U131G, the self-cleavage turned out to be 0.28.

As to U70G U102C, the self-cleavage amounted to 0.64.

As for U72C A116G, the self-cleavage was 0.07.

Turning to C71A, the self-cleavage is 0.61.

In the case of C71U, the self-cleavage was 0.17.

As to C71G, the self-cleavage worked out at 0.24.

Regarding C71A A82G, the self-cleavage was 0.26.

U72G A111U: the self-cleavage came to 0.04.

Consider G75A A90G, for which the self-cleavage was determined as 0.13.

In the case of U72C A126U, the self-cleavage came out at 0.4.

U72C A126G: the self-cleavage was 0.12.

On to U72C U97C, for which the self-cleavage was 0.1.

U72A A96G: the self-cleavage stood at 0.2.

For the variant G73A A117U, the self-cleavage is 0.17.

Take U72G U87C: the self-cleavage stood at 0.31.

Regarding U72G A135C, the self-cleavage is 0.33.

Consider G74A C128U, for which the self-cleavage was 0.13.

Take U72A A129U: the self-cleavage was 0.23.

For U72A A129G, the self-cleavage came out at 0.08.

With C71A U120C, the self-cleavage was determined as 0.24.

In the case of G74A U131C, the self-cleavage turned out to be 0.19.

As for U72C U127C, the self-cleavage came out at 0.07.

For the variant U72A A98G, the self-cleavage was determined as 0.04.

Consider U72C A89U, for which the self-cleavage is 0.45.

Consider U72G G74A, for which the self-cleavage was 0.18.

In the case of G74U U120C, the self-cleavage was 0.08.

For the variant U72C G136C, the self-cleavage worked out at 0.31.

Regarding G74C, the self-cleavage was determined as 0.19.

With G74A, the self-cleavage amounted to 0.12.

As to G74U, the self-cleavage was determined as 0.05.

Regarding U72C A86G, the self-cleavage was found to be 0.14.

Consider U72C A86U, for which the self-cleavage stood at 0.14.

Consider G74A U102C, for which the self-cleavage was 0.05.

For U72C G93A, the self-cleavage was found to be 0.32.

With G73A A89C, the self-cleavage turned out to be 0.14.

As to U72C A78U, the self-cleavage turned out to be 0.15.

Turning to U72G U103C, the self-cleavage was determined as 0.07.

Take U72C U100C: the self-cleavage is 0.34.

U72C C112U: the self-cleavage came out at 0.02.

As to U72A A116G, the self-cleavage was determined as 0.04.

As to U72C U124G, the self-cleavage stood at 0.07.

U72A A92G: the self-cleavage turned out to be 0.26.

C71U U87A: the self-cleavage worked out at 0.61.

Regarding U72A U133C, the self-cleavage is 0.29.

For the variant C71U C105U, the self-cleavage came to 0.07.

As for G73A A111G, the self-cleavage came to 0.02.

As to C71U A89G, the self-cleavage came out at 0.52.

For the variant G74A G115U, the self-cleavage turned out to be 0.03.

Regarding G74A U139C, the self-cleavage is 0.19.

Regarding G75A A114U, the self-cleavage was determined as 0.02.

With G75A A114G, the self-cleavage came to 0.04.

As to U72A C105U, the self-cleavage turned out to be 0.04.

As to U72C A110G, the self-cleavage came to 0.06.

In the case of G74A A116G, the self-cleavage came out at 0.12.

Consider G74C A89G, for which the self-cleavage stood at 0.07.

As to G73U A86C, the self-cleavage came out at 0.19.

G73A U131C: the self-cleavage worked out at 0.08.

Regarding G74U A114G, the self-cleavage turned out to be 0.03.

Turning to G74A U100C, the self-cleavage stood at 0.45.

As for U72A U122C, the self-cleavage stood at 0.12.

Consider U72C A125G, for which the self-cleavage worked out at 0.07.

As for U72A U124C, the self-cleavage is 0.04.

As for U72A A94G, the self-cleavage came out at 0.02.

Consider U72A A111G, for which the self-cleavage came out at 0.02.

For the variant U72G A90G, the self-cleavage is 0.39.

For U72C G79A, the self-cleavage came out at 0.32.

Turning to G74A A82U, the self-cleavage turned out to be 0.32.

For G74A U120C, the self-cleavage amounted to 0.1.

For G73A A86G, the self-cleavage is 0.05.

Turning to U72A A114C, the self-cleavage stood at 0.06.

As to U72A A114U, the self-cleavage was 1.94.

With U72G A86G, the self-cleavage worked out at 0.1.

For G74A C81A, the self-cleavage is 0.19.

Turning to U72A C101U, the self-cleavage came to 0.04.

Turning to G73U U122C, the self-cleavage came to 0.1.

C71A A117G: the self-cleavage amounted to 0.35.

With C71U A91G, the self-cleavage was found to be 0.41.

In the case of U72C G104A, the self-cleavage was found to be 0.01.

As for G73A U122C, the self-cleavage turned out to be 0.04.

On to G74A U130C, for which the self-cleavage was 0.11.

With U72C A140C, the self-cleavage came out at 0.44.

On to U72C C109A, for which the self-cleavage worked out at 0.07.

U72C C109U: the self-cleavage stood at 0.06.

Regarding G73U A116G, the self-cleavage was 0.11.

Consider G73A C88U, for which the self-cleavage came to 0.17.

In the case of G74A A78G, the self-cleavage came out at 0.21.

Take G74A A94G: the self-cleavage is 0.13.

For the variant U72C A135U, the self-cleavage was 0.28.

U72G U132A: the self-cleavage amounted to 0.44.

Turning to U72A A118G, the self-cleavage worked out at 0.12.

C71A U103C: the self-cleavage is 0.11.

As to C71A U97C, the self-cleavage was 0.18.

With U72G A118G, the self-cleavage came to 0.22.

With U72C C105U, the self-cleavage was 0.03.

For U72G A114U, the self-cleavage came out at 0.6.

In the case of U72C A117U, the self-cleavage was determined as 0.15.

In the case of U72C A92G, the self-cleavage turned out to be 0.21.

Regarding U72C A91C, the self-cleavage was 0.27.

As for G74U A94G, the self-cleavage was 0.41.

As to U72C A82G, the self-cleavage amounted to 0.3.

With U72C A82U, the self-cleavage was determined as 0.08.

As for C71A A95G, the self-cleavage was 0.88.

As to U70G U127C, the self-cleavage was 0.57.

Take U70G U103C: the self-cleavage is 1.08.

Turning to U72A U103C, the self-cleavage was 0.14.

On to U72A A134U, for which the self-cleavage came out at 0.27.

The values above are taken from the RNAGym collection of RNA variant scans (doi:10.7554/elife.90254).
